Data on 40 molecules can be found in patent publication US20080026996A1, “Selective Vpac2 Receptor Reptide Agonists” (ELI LILLY AND COMPANY, priority 2004, published 2008).

To fix the notation:
T1: human VPAC2 receptor (human, UniProt P41587 24-438)
T1 sequence (looked up): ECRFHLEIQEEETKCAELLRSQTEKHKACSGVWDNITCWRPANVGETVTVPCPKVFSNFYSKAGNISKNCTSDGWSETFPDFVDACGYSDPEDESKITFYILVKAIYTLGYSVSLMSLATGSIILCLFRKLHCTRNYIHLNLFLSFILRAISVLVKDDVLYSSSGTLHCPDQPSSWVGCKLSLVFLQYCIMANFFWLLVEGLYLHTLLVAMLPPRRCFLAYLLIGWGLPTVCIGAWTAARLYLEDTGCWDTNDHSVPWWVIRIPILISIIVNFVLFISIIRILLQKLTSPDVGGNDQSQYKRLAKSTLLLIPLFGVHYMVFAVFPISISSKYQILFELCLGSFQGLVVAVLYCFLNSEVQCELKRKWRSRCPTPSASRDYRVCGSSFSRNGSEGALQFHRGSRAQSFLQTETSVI

Where no end group is shown, it is not given here. [ ]: non-standard residue; d: D form. The star is where a group is joined. Orn = NCCC[C@H](N)C(=O)O; Hexanoyl = CCCCCC(=O)*; Aib = CC(C)(N)C(=O)O

For the test, the target named is T1, human VPAC2 receptor. As to the kind of experiment: cell-based or functional assay.
Turning to HSDAVFTDNYTRLRKQVAAKKYLQSIKRGGPSSGAPPPS [P82], the “EC50 cAMP, Alpha Screen” value came to 15.2 nM. For HSDAVFTDNYTRLRXQVAAXKYLQSIKXGGPSSGAPPPS (N-terminal hexanoyl (C6); Aib at 15, 20; hR at 28) [P354], the “EC50 cAMP, Alpha Screen” value was 0.14 nM. On the same count and under the same terms, as for HSDAVFTDNYTRLRKQVAAKKYLQSIKKGGPSSGAPPPS [P85], the figure is 22.2 nM; as for Hexanoyl-HSDAVFTDNYTRLRKQVAAKKYLQSIKNGRPSSGAPPPS [P271], 0.12 nM. With HSDAVFTDNYTRLRKQVAAKKYLQSIKNGRPSSGAPPPS [P92], the “EC50 cAMP, Alpha Screen” value came out at 10.2 nM and the “EC50 cAMP, DiscoveRx” value amounted to 8.2 nM. Regarding Hexanoyl-HSDAVFTDNYTRLR[Aib]QVAA[Aib]KYLQSI[dK][dK]GGPSSGAPPPS (ends and bridges not checked) [P353], the “EC50 cAMP, Alpha Screen” value turned out to be 0.18 nM. Turning to Hexanoyl-HSDAVFTDNYTRLR[Orn]QVAAKKYLQSIKNKRYGGPSSGAPPPS (ends and bridges not checked) [P307], the “EC50 cAMP, Alpha Screen” value is 0.32 nM. As for Hexanoyl-HSDAVFTDNYTALR[Aib]QVAA[Aib]KYLQSI[Orn]N[Orn]GGPSSGAPPPS [P366], the “EC50 cAMP, Alpha Screen” value worked out at 2.6 nM. For Hexanoyl-HSDAVFTDNYTRLR[Aib]QVAA[Aib]KYLQSIK[Aib]KGGPSSGAPPPS (ends and bridges not checked) [P349], the “EC50 cAMP, Alpha Screen” value is 0.08 nM. On the same count and under the same terms, as for Hexanoyl-HSDAVFTDNYTRLR[Aib]QVAA[Aib]KYLQSIKKGGPSSGAPPPS (ends and bridges not checked) [P351], the figure is 0.11 nM. Hexanoyl-HSDAVFTDNYTRLA[Aib]QVAA[Aib]KYLQSIKNKRYGGPSSGAPPPS (ends and bridges not checked) [P301]: the “EC50 cAMP, Alpha Screen” value turned out to be 0.89 nM. Hexanoyl-HSDAVFTDNYTRLL[Aib]QVAA[Aib]KYLQSIKNKRYGGPSSGAPPPS (ends and bridges not checked) [P317]: the “EC50 cAMP, Alpha Screen” value turned out to be 0.36 nM.

As for Hexanoyl-HSDAVFTDNYTRLR[Aib]QAAA[Aib]KYLQSIKNKRYGGPSSGAPPPS (ends and bridges not checked) [P324], the “EC50 cAMP, Alpha Screen” value was 0.23 nM.

As for Hexanoyl-HSDAVFTDNYTRLQ[Aib]QVAA[Aib]KYLQSIKNKRYGGPSSGAPPPS (ends and bridges not checked) [P302], the “EC50 cAMP, Alpha Screen” value was 0.45 nM. For Hexanoyl-HSDAVFTDNYTRLR[Aib]QVAA[Aib]AYLQSIKNKRYGGPSSGAPPPS (ends and bridges not checked) [P341], the “EC50 cAMP, Alpha Screen” value was 0.38 nM.

In the case of Hexanoyl-HSDAVFTDNYTRLR[Aib]QVAA[Aib]KYLQSIK[Aib]GGPSSGAPPPS (ends and bridges not checked) [P355], the “EC50 cAMP, Alpha Screen” value worked out at 0.1 nM.

As for Hexanoyl-HSDAVFTDNYTRLR[Aib]QVAA[Aib]KYLQSIKQKGGPSSGAPPPS (ends and bridges not checked) [P294], the “EC50 cAMP, Alpha Screen” value came to 0.24 nM. Take Hexanoyl-HSDAVFTDNYTRLRKQVAAKKYLQSIKNKRGGPSSGAPPPS [P123]: the “EC50 cAMP, Alpha Screen” value is 0.12 nM. On to Hexanoyl-HSDAVFTDNYTRLRKQVAAKKYLQSIKNSRGGPSSGAPPPS [P122], for which the “EC50 cAMP, Alpha Screen” value was determined as 0.14 nM. Turning to HSDAVFTDNYTXLRXQLAAXKYLQSIXNXGGPSSGAPPPS (N-terminal hexanoyl (C6); Orn at 12, 27, 29; Aib at 15, 20) [P364], the “EC50 cAMP, Alpha Screen” value was found to be 0.11 nM.

With HSDAVFTDNYTXLRXQIAAXKYLQSIXNXGGPSSGAPPPS (N-terminal hexanoyl (C6); Orn at 12, 27, 29; Aib at 15, 20) [P365], the “EC50 cAMP, Alpha Screen” value came out at 0.13 nM. Same read-out and setting: as for Hexanoyl-HSDAVFTDNYT[Aib]LR[Aib]QVAA[Aib]KYLQSIKNKRYGGPSSGAPPPS (ends and bridges not checked) [P345], the figure is 1.17 nM. With HSDAVFTDNYTRLRKQVAAKKYLQSIKNKRGGT [P7], the “EC50 cAMP, DiscoveRx” value came to 2.78 nM.

Turning to HSDAVFTDNYTRLRKQVAAKKYLQSIKNKKGGT [P8], the “EC50 cAMP, DiscoveRx” value turned out to be 1.61 nM. Hexanoyl-H[Aib]DAVFTDNYTRLRKQVAAKKYLQSIKNKRYGGPSSGAPPPS (ends and bridges not checked) [P166]: the “EC50 cAMP, Alpha Screen” value is 0.15 nM. For the molecule Hexanoyl-HSDAVFTDNYTRLR[Aib]QVAAAKYLQSIKNKRYGGPSSGAPPPS (ends and bridges not checked) [P263], the “EC50 cAMP, Alpha Screen” value turned out to be 0.07 nM. The same measure, in the same setting: as for Hexanoyl-HSDAVFTDNYTRLR[Aib]QVAALKYLQSIKNKRYGGPSSGAPPPS (ends and bridges not checked) [P265], the figure is 0.21 nM; as for Hexanoyl-HSDAVFTDNYTRL[Aib]KQVAA[Aib]KYLQSIKQGGPSSGAPPPS (ends and bridges not checked) [P296], 6.69 nM; as for Hexanoyl-HSDAVFTDNYTRLR[Aib]QVAA[Aib]KYLQSIKPKGGPSSGAPPPS (ends and bridges not checked) [P350], 0.13 nM. Regarding HSDAVFTDNYTRLRKQVAAKKYLQSIKNKKGGPSSGAPPPS [P9], the “EC50 cAMP, DiscoveRx” value was 2.41 nM. Turning to Hexanoyl-HSDAVFTDNYTRL[Orn][Aib]QVAA[Aib]KYLQSIKNKRYGGPSSGAPPPS (ends and bridges not checked) [P319], the “EC50 cAMP, Alpha Screen” value is 0.26 nM.

As for Hexanoyl-HSDAVFTDNYTRLR[Aib]QVAAK[Aib]YLQSIKQKGGPSSGAPPPS (ends and bridges not checked) [P295], the “EC50 cAMP, Alpha Screen” value amounted to 0.39 nM. Take Hexanoyl-HSDAVFTDNYTRL[Aib]KQVAA[Aib]KYLQSIKQKGGPSSGAPPPS (ends and bridges not checked) [P293]: the “EC50 cAMP, Alpha Screen” value was determined as 1.89 nM. As to Hexanoyl-HSDAVFTDNYTRLR[Aib]QVAA[Aib]KYLQSIKQGGPSSGAPPPS (ends and bridges not checked) [P297], the “EC50 cAMP, Alpha Screen” value amounted to 0.36 nM.

Consider Hexanoyl-HSDAVFTDNYTRLR[Aib]QVAAK[Aib]YLQSIKQGGPSSGAPPPS (ends and bridges not checked) [P298], for which the “EC50 cAMP, Alpha Screen” value stood at 0.5 nM.

Turning to Hexanoyl-HSDAVFTDNYTRLRKQVAAQKYLNQLKKGGPSSGAPPPS [P144], the “EC50 cAMP, Alpha Screen” value came out at 0.32 nM.

With [dH]SDAVFTDNYTRLRKQVAAKKYLQSIKNKRYGGPSSGAPPPS [P84], the “EC50 cAMP, Alpha Screen” value was 185 nM.

For HSDAVFTDNYTRLXXQVAAXKYLQSIKNKRYGGPSSGAPPPS (N-terminal hexanoyl (C6); hR at 14; Aib at 15, 20) [P316], the “EC50 cAMP, Alpha Screen” value is 0.3 nM. The same measure, in the same setting: as for HSDAVFTDNYTRLXXQVAAXKYLQSIKNKRYGGPSSGAPPPS (N-terminal hexanoyl (C6); Cit at 14; Aib at 15, 20) [P320], the figure is 0.49 nM; as for HSDAVWTDNYTRLRKQVAAKKYLQSIKNKRYGGPSSGAPPPS [P67], 94.1 nM.
